In PMC3876282:

Target: AvrPtoB BAK1-interacting domain, 250-359 (UniProt Q8RSY1)
Assay: gel filtration co-migration, Coomassie SDS-PAGE
Details: reference: wild-type BAK1-KD

BAK1 kinase domain, 250-591 (from UniProt Q94F62) BAK1-KD T449A
binding against the reference (sites T449): lost

BAK1 kinase domain, 250-591 (from UniProt Q94F62) BAK1-KD T450A
binding against the reference (sites T450): lost
